The values that follow come from the PETadex activity labels (doi:10.1002/cbic.201800097).

Numbering of substitutions follows the chain as printed.

B1: unnamed (protein)
chain: MNFPRASRLMQAAVLGGLMAVSAAATAQTNPYARGPNPTAASLEASAGPFTVRSFTVSRPSGYGAGTVYYPTNAGGTVGAIAIVPGYTARQSSIKWWGPRLASHGFVVITIDTNSTLDQPSSRSSQQMAALRQVASLNGTSSSPIYGKVDTARMGVMGWSMGGGGSLISAANNPSLKAAAPQAPWDSSTNFSSVTVPTLIFACENDSIAPVNSSALPIYDSMSRNAKQFLEINGGSASCANSGNSNQALIGKKGVAWMKRFMDNDTRYSTFACENPNSTRVSDFRTANCS
B2: unnamed (protein)
chain: NPYARGPNPTAASLEASAGPFTVRSFTVSRPSGYGAGTVYYPTNAGGTVGAIAIVPGYTARQSSIKWWGPRLASHGFVVITIDTNSTLDQPSSRSSQQMAALRQVASLNGTSSSPIYGKVDTARMGVMGWSMGGGGSLISAANNPSLKAAAPQAPWDSSTNFSSVTVPTLIFACENDSIAPVNSSALPIYDSMSRNAKQFLEINGGSHFCANSGNSNQALIGKKGVAWMKRFMDNDTRYSTFACENPNSTRVSDFRTANCS
B3: unnamed (protein)
chain: B2 chain with D177A, F209S
B4: unnamed (protein)
chain: B2 chain with S185H, F209S
B5: unnamed (protein)
chain: B2 chain with M132A, F209S
B6: unnamed (protein)
chain: B2 chain with R94A, F209S
B7: unnamed (protein)
chain: B2 chain with Q153L, F209S
B8: unnamed (protein)
chain: B2 chain with C174A, F209S
B9: unnamed (protein)
chain: B2 chain with W130A, F209S
B10: unnamed (protein)
chain: B2 chain with S131A, F209S
B11: unnamed (protein)
chain: B2 chain with I179A, F209S
B12: unnamed (protein)
chain: B2 chain with W130H, F209S

Substrate in one data set: BHET
The data set can be described thus: Proxy for plastic degradation [Released monomer concentration (HPLC/LC-MS) (MHET+TPA)]. To be noted: pH 7.5.
In the case of B1, the “Proxy for plastic degradation” value stood at 0.03 µM.
As for B3, the “Proxy for plastic degradation” value turned out to be 0.03 µM.
As for B4, the “Proxy for plastic degradation” value worked out at 0.45 µM.
Still for that read-out and setting: next, B5: 0.57 µM.
For the protein B6, the “Proxy for plastic degradation” value was 0.6 µM.
With B7, the “Proxy for plastic degradation” value came out at 1.26 µM.
On the same count and under the same terms, the result for B8 reads 0.26 µM; that for B9, 0.23 µM.
With B10, the “Proxy for plastic degradation” value was 0.06 µM.
For the protein B11, the “Proxy for plastic degradation” value came to 0.54 µM.

Substrate in the next data set: PET
The data set can be described thus: Proxy for plastic degradation [Released monomer concentration (HPLC/LC-MS) (TPA)]. To be noted: pH 9; part of the chain shown.
With B2, the “Proxy for plastic degradation” value came out at 3.5 nM.
On to B12, for which the “Proxy for plastic degradation” value is 20 nM.

Substrate in a further data set: PET
The data set can be described thus: Proxy for plastic degradation [Released monomer concentration (HPLC/LC-MS) (MHET)]. To be noted: pH 9; part of the chain shown.
On to B2, for which the “Proxy for plastic degradation” value is 4 nM.
On to B12, for which the “Proxy for plastic degradation” value worked out at 20 nM.

Substrate in the next data set: BHET
Description: Proxy for plastic degradation [Released monomer concentration (HPLC/LC-MS) (MHET+TPA)]. Particulars: pH 7.5; part of the chain shown.
Turning to B2, the “Proxy for plastic degradation” value was determined as 1.6 µM.
As to B12, the “Proxy for plastic degradation” value stood at 1.94 µM.

Substrate in a further data set: PET
The data set can be described thus: Proxy for plastic degradation [Released monomer concentration (HPLC/LC-MS) (MHET)]. Particulars: pH 9.
B6: the “Proxy for plastic degradation” value worked out at 1 nM.
Turning to B7, the “Proxy for plastic degradation” value was 8 nM.
